Experimental data as given in patent US20180030109A1.

What was measured:
[1] = molecular target: MUC16 (CA125), native, membrane-bound on cancer cells (human) (UniProt Q8WXI7); assay: cell-based or functional assay
[2] = molecular target: MUC16 (CA125), native, membrane-bound on cancer cells (human) (UniProt Q8WXI7); assay: flow cytometry on OVCAR3 cells, anti-FLAG detection
[3] = molecular target: MUC16-targeted mesothelin-TR3 fusion protein (Meso-TR3) (human); assay: cell-based or functional assay
MUC16-targeted mesothelin-TR3 fusion protein (Meso-TR3) (human), sequence (chain, as listed by the source limits assumed, form in doubt): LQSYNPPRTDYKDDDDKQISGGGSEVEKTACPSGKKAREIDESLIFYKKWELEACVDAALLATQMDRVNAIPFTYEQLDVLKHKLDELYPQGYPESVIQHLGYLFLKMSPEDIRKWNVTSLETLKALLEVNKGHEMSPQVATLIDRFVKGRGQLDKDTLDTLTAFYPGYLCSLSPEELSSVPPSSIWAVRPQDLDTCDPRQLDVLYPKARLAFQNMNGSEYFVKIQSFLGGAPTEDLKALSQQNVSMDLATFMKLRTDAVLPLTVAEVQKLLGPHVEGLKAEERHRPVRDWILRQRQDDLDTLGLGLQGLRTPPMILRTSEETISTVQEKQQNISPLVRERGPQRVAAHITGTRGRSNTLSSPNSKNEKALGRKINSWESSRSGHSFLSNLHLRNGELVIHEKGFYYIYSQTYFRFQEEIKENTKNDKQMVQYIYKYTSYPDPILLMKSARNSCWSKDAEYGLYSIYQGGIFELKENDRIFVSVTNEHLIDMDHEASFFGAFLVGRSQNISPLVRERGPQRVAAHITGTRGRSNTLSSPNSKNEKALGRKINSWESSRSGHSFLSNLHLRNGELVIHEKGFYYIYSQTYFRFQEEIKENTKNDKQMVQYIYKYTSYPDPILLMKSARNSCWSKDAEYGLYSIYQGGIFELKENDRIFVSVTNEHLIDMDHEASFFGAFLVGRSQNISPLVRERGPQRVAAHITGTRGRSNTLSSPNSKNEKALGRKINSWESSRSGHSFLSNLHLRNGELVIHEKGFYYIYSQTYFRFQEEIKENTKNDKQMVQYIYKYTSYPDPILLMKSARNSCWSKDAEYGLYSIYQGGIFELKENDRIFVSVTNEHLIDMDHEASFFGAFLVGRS

MUC16-targeted mesothelin-TR3 fusion protein (Meso-TR3), sequence (chain): as the sequence (chain, as listed by the source limits assumed, form in doubt) above

“MUC16-targeted mesothelin-TR3 fusion protein (Meso-TR3)” showed a cell death of MUC16-positive OVCAR3 cells at the highest drug dose [1] of 65%, a cell killing of OVCAR3 cells by Meso-TR3, highest dose of soluble mesothelin competitor [1] of 40% and a cell killing of OVCAR3 cells by Meso-TR3, no competitor [1] of 80%. It also gave a fraction of MUC16-positive HeLa cells after Meso-TR3 treatment (flow cytometry) [1] of 54% and a fraction of MUC16-positive HeLa cells before Meso-TR3 treatment (flow cytometry) [1] of 80%.

“soluble, FLAG-tagged human mesothelin (secreted form, GPI signal sequence deleted) (from UniProt Q13421 37-598) (ligand)” showed a percent of cells positive for the FLAG epitope tag [2] of 100%.

For “soluble death receptor 5 (DR5-Fc) (from UniProt O14763 56-182) (Fc fusion)”, the cell death of OVCAR3 cells by Meso-TR3 at the highest DR5-Fc concentration [3] was < 10% and the cell death of OVCAR3 cells by Meso-TR3 in the absence of DR5-Fc [3] was 90%.
